Values quoted from earlier work, collected in patent publication US5494894A, “Agent for the regulation of the appetite or a sleeping agent” (Erlanson-Albertsson; Charlotte, priority 1986, dated 1996).

Tested on: patients
Settings: administered intravenously; cited from earlier work

B1: cholocystokinin (peptide, UniProt P06307 21-115, looked up)
Cholecystokinin: QPVPPADPAGSGLQRAEEAPRRQLRVSQRTDGESRAHLGALLARYIQQARKAPSGRMSIVKNLQNLDPSHRISDRDYMGWMDFGRRSAEEYEYPS
modifications: Cholecystokinin
notes: hormone which stimulates the secretion of pancreatic enzymes
In the case of B1, the Feeling of satiety is given as “earlier feeling of satiety”.
